The results in this text go back to patent US20260265358A1 (BYOMASS, published 2026).

Where “and” joins values, the source holds several entries; their conditions need not be identical. Equal values may be shown once.

One test deals with T1, Human Activin A Fc (human, UniProt P03970 309-424 (pig entry)).
T1 construct: also called human Activin A-Fc fusion; human Activin A-Fc antigen; not shown: Fc part
T1 sequence: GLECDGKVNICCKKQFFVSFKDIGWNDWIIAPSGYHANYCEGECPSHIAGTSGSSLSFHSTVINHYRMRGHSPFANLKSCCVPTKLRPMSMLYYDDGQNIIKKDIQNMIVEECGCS
The test is described as follows: Octet BLI, IgG, avid. The procedure: ForteBio affinity measurements were performed on an Octet HTX generally as previously described (see, e.g., Estep et al, Mabs 5(2), 270-278 (2013)). Briefly, ForteBio affinity measurements were performed by loading IgGs on-line onto AHC sensors. Sensors were equilibrated off-line in assay buffer for 30 min and then monitored on-line for 60 seconds for baseline establishment. Sensors with loaded IgGs were exposed to 100 nM antigen for 3 minutes, and afterwards were transferred to assay buffer for 3 min for off-rate measurement. All kinetics were analyzed using the 1:1 binding model.
Binding affinity and epitope binning assays were performed with a ForteBio instrument as described herein.
(In general: Biolayer interferometry detects binding as a change in optical thickness at a sensor tip.)

Test [1] has as its target T2, Activin B (UniProt P09529 293-407).
T2 sequence (looked up): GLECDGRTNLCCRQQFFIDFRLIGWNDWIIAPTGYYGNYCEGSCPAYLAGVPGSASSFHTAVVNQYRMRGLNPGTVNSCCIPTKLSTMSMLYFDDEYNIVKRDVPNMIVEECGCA
The test is described as follows: Octet BLI, IgG, avid.

Another test addresses T3, BMP9 (UniProt Q9UK05 320-429).
T3 sequence (looked up): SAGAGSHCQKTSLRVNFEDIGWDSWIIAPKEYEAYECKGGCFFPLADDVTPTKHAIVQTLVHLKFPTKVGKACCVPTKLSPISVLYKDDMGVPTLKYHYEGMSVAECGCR
The test is described as follows: Octet BLI, IgG, avid.

Another test has as its target T4, BMP10 (UniProt O95393 317-424).
T4 sequence (looked up): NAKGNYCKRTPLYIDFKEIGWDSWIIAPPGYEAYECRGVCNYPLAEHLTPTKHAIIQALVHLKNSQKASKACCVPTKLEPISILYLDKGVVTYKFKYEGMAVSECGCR
The test is described as follows: Octet BLI, IgG, avid.

The target in the next test is T5, GDF15 Fc (UniProt Q99988 197-308, limits assumed).
T5 construct: not shown: Fc part
T5 sequence (looked up): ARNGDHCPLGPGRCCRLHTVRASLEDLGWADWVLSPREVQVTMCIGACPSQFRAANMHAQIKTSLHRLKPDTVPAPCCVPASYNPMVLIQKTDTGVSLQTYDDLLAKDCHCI
The test is described as follows: Octet BLI, IgG, avid.

The target of another test is T6, Human GDNF (human, UniProt P39905 78-211).
T6 sequence (looked up): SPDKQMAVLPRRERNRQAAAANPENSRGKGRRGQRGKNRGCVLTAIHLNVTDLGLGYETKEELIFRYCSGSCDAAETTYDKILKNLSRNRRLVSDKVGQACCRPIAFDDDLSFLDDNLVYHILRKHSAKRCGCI
The test is described as follows: Octet BLI, IgG, avid.

The target of the next test is Human GDF8 (human, UniProt O14793 267-375). The test is described as follows: Octet BLI, IgG, avid.
A further test has as its target T7, Human GDF10 (human, UniProt P55107 369-478).
T7 sequence (looked up): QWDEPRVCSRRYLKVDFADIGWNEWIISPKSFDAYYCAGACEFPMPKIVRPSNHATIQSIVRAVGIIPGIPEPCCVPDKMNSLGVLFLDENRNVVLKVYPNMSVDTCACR
The test is described as follows: Octet BLI, IgG, avid.

For a further test, the target named is Human GDF11 (human, UniProt O95390 299-407). The test is described as follows: Octet BLI, IgG, avid.
Test [2] deals with T8, Activin A (ligand of the Activin 2B Receptor/SMAD reporter assay) (UniProt P08476 311-426).
T8 sequence (looked up): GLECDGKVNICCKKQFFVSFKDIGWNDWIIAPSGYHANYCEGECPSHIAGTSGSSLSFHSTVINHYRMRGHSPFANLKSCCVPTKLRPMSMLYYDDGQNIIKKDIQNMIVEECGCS
The test is described as follows: cell-based or functional assay.

In test [3] the target is T2, Activin B. The test is described as follows: cell-based or functional assay.

Human GDF11, sequence (O95390 299-407 limits assumed): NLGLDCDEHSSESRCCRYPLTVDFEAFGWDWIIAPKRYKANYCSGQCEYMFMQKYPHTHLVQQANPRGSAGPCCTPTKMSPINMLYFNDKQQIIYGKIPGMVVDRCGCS

B1: anti-Activin A antibody Clone A (IgG) (antibody, V domains shown)
VH: QVQLVQSGAEVKKPGASVKVSCKASGYTFTGYYMHWVRQAPGQGLEWMGSINPSSGGTNYAQKFQGRVTMTTDTSTSTAYMELRSLRSDDTAVYYCARARDIAAAGLGAFDYWGQGTLVTVSS
VL: EIVLTQSPGTLSLSPGERATLSCRASQSVRSSYLAWYQQKPGQAPRLLIYGASSRATGIPDRFSGSGSGTDFTLTISRLEPEDFAVYYCQQYVSYPRTFGGGTKVEIKR
notes: IgG format; also called Antibody A
In the case of B1, the affinity with Human Activin A Fc, expressed as Kd, was 0.81 nM. Moreover, the binding result with Activin B [1], with BMP9, in the test with BMP10, in the test with GDF15 Fc, in the test with Human GDNF and with Human GDF8 was “no binding (tested: 100 nM antigen)” each time. The binding result with Human GDF10 and in the test with Human GDF11 was “no binding (tested: 100 nM antigen)” each time. Also, the “Activin A-ActRIIB SMAD IC50 pM” value in [2] is 324 pM and 282 pM and 361 pM. In addition, the “Activin B-ActRIIB SMAD IC50 pM” value in the test with Activin B [3] is greater than 100000 pM.

B2: anti-Activin A antibody Clone H (IgG) (antibody, V domains shown)
VH: QVQLVQSGAEVKKPGASVKVSCKASGYTFTGYHIHWVRQAPGQGLEWMGHISAYSGTTNYAQKLQGRVTMTTDTSTSTAYMELRSLRSDDTAVYYCARARDIAAAGLGAFDYWGQGTLVTVSS
VL: EIVLTQSPGTLSLSPGERATLSCRASQSVRSSYLAWYQQKPGQAPRLLIYGASSRATGIPDRFSGSGSGTDFTLTISRLEPEDFAVYYCQQYSNYPRTFGGGTKVEIKR
notes: IgG format; also called Antibody H
In the case of B2, the affinity with Human Activin A Fc, expressed as Kd, was 0.666 nM. Moreover, the binding result with BMP9, in the test with BMP10, in the test with GDF15 Fc, with Human GDNF, with Human GDF8 and in the test with Human GDF10 was “no binding (tested: 100 nM antigen)” each time. Also, the binding result in the test with Human GDF11 was “no binding (tested: 100 nM antigen)”. Also, the “Activin A-ActRIIB SMAD IC50 pM” value in [2] amounted to 36.9 pM. Moreover, the “Activin B-ActRIIB SMAD IC50 pM” value with Activin B [3] is greater than 100000 pM.

B3: anti-Activin A antibody Clone G (IgG) (antibody, V domains shown)
VH: QVQLVQSGAEVKKPGASVKVSCKASGYTFTSYYIHWVRQAPGQGLEWMGAIYAYSGDTNYAQKLQGRVTMTTDTSTSTAYMELRSLRSDDTAVYYCARARDIAAAGLGAFDYWGQGTLVTVSS
VL: EIVLTQSPGTLSLSPGERATLSCRASQSVRSSYLAWYQQKPGQAPRLLIYGASSRATGIPDRFSGSGSGTDFTLTISRLEPEDFAVYYCQQYSNYPRTFGGGTKVEIKR
notes: IgG format; also called Antibody G
Consider B3, for which, in the test with Human Activin A Fc, the Kd (in general, the concentration at which binding is half-saturated) stood at 0.68 nM. Also, the binding result with Activin B [1], with BMP9, with BMP10, with GDF15 Fc, in the test with Human GDNF and with Human GDF8 was “no binding (tested: 100 nM antigen)” each time. For the same molecule, the binding result in the test with Human GDF10 and with Human GDF11 was “no binding (tested: 100 nM antigen)” each time. The “Activin A-ActRIIB SMAD IC50 pM” value in test [2] was 15.8 pM. Besides, in the test with Activin B [3], the “Activin B-ActRIIB SMAD IC50 pM” value was greater than 100000 pM.
